Measurements from publication PMC6971018.

Columns and labels:
[1] = biological target: His6x-CutF, purified (Klebsiella pneumoniae) (UniProt A6T4Z5); test: SEC; purified His6x-tagged core enzymes, alone and together, on the Superose 6 column
[2] = biological target: cmcD (BMC-P shell protein) (Klebsiella pneumoniae); test: cryo-EM structure; small type cmcABC′ + cmcD + CutC_(336–1128) BDPs (gel filtration 90-100 ml), 1 mg/ml in 100 mM NaCl, 20 mM Tris-HCl pH 8.0; pT = 4 icosahedral map at 3.3 Å

Substance	stoichiometry N [1]	stoichiometry N [2]
His6x-CutF, purified (from UniProt A6T4Z5 1-239) (enzyme)	4	
cmcD (BMC-P shell protein) (natural protein)		5
